One assay addresses T1, 4H1158-bH.
T1 chain: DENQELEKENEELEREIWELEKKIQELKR
Kind of assay: two-hybrid library CCNG1.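 Also: natural log of median RNA to DNA barcode read ratio; higher means stronger binding.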

The target of another assay is T2, 4H118-bH.
T2 chain: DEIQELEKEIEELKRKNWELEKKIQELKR
In words: two-hybrid library CCNG1.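 Also: natural log of median RNA to DNA barcode read ratio; higher means stronger binding.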

A further assay deals with T3, 4H170-bH.
T3 chain: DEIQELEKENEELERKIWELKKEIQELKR
Kind of assay: two-hybrid library CCNG1.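 Also: natural log of median RNA to DNA barcode read ratio; higher means stronger binding.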

A further assay deals with T4, 4H1831-bH.
T4 chain: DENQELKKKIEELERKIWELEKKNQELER
In words: two-hybrid library CCNG1.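 Also: natural log of median RNA to DNA barcode read ratio; higher means stronger binding.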

Another assay deals with T5, 4H2586-bH.
T5 chain: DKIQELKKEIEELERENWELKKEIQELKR
Kind of assay: two-hybrid library CCNG1.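 Also: natural log of median RNA to DNA barcode read ratio; higher means stronger binding.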

The next assay deals with T6, 4H2627-bH.
T6 chain: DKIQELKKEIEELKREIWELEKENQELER
In words: two-hybrid library CCNG1.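 Also: natural log of median RNA to DNA barcode read ratio; higher means stronger binding.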

A further assay has as its target T7, 4H2673-bH.
T7 chain: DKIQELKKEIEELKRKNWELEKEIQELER
In words: two-hybrid library CCNG1.

The target of another assay is T8, 4H2702-bH.
T8 chain: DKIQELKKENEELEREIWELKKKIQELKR
Kind of assay: two-hybrid library CCNG1.

The next assay has as its target T9, 4H3010-bH.
T9 chain: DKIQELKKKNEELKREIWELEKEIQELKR
Kind of assay: two-hybrid library CCNG1.

The target of the next assay is T10, 4H3112-bH.
T10 chain: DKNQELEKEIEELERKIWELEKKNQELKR
Kind of assay: two-hybrid library CCNG1.

In the next assay the target is T11, 4H3427-bH.
T11 chain: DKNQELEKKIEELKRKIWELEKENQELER
Kind of assay: two-hybrid library CCNG1.

For a further assay, the target named is T12, 4H346-bH.
T12 chain: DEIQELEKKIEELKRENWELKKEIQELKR
In words: two-hybrid library CCNG1.

The target of a further assay is T13, 4H3926-bH.
T13 chain: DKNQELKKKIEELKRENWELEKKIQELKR
Kind of assay: two-hybrid library CCNG1.

For the next assay, the target named is T14, 4H4073-bH.
T14 chain: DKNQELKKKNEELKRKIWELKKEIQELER
In words: two-hybrid library CCNG1.

The target of the next assay is T15, 4H457-bH.
T15 chain: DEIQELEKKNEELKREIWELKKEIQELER
In words: two-hybrid library CCNG1.

In a further assay the target is T16, 4H575-bH.
T16 chain: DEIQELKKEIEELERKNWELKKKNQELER
Kind of assay: two-hybrid library CCNG1.

Another assay addresses T17, 4H683-bH.
T17 chain: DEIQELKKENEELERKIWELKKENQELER
Kind of assay: two-hybrid library CCNG1.

In another assay the target is T18, 4H754-bH.
T18 chain: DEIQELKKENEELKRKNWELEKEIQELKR
Kind of assay: two-hybrid library CCNG1.

The next assay concerns the target T19, 4H780-bH.
T19 chain: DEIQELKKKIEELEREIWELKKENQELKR
In words: two-hybrid library CCNG1.

The target of another assay is T20, 4H797-bH.
T20 chain: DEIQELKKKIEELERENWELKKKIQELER
In words: two-hybrid library CCNG1.

In the next assay the target is T21, 4H855-bH.
T21 chain: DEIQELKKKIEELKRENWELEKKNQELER
In words: two-hybrid library CCNG1.

The target in another assay is T22, 4H918-bH.
T22 chain: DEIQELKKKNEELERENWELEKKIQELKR
In words: two-hybrid library CCNG1.

The target of a further assay is T23, 4H953-bH.
T23 chain: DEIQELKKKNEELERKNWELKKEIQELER
In words: two-hybrid library CCNG1.

The next assay addresses T24, 4H968-bH.
T24 chain: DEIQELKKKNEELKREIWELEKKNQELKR
In words: two-hybrid library CCNG1.

The target of another assay is T25, P2-AA-1HAA-D.
T25 chain: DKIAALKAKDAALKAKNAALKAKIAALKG
In words: two-hybrid library CCmax. The settings on record: mean of both orientations.

A further assay concerns the target T26, P2-AA-1HAA-E.
T26 chain: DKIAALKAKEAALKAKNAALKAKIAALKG
Kind of assay: two-hybrid library CCmax. The settings on record: mean of both orientations.

For the next assay, the target named is T27, P2-AA-1HAA-H.
T27 chain: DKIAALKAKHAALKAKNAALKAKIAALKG
Kind of assay: two-hybrid library CCmax. The conditions noted are these: mean of both orientations.

The target of another assay is T28, P2-AA-1HAA-I.
T28 chain: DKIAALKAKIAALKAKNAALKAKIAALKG
Kind of assay: two-hybrid library CCmax. The settings on record: mean of both orientations.

The target of a further assay is T29, P2-AA-1HAA-R.
T29 chain: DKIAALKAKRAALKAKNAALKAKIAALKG
Kind of assay: two-hybrid library CCmax. The settings on record: mean of both orientations.

The target in a further assay is T30, P2-AA-1HAA-S.
T30 chain: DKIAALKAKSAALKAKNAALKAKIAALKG
Kind of assay: two-hybrid library CCmax. The conditions noted are these: mean of both orientations.

The target of a further assay is T31, P2-AA-1HAA-T.
T31 chain: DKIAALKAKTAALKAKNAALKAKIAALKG
Kind of assay: two-hybrid library CCmax. The settings on record: mean of both orientations.

For another assay, the target named is T32, P2-AA-1HAA-V.
T32 chain: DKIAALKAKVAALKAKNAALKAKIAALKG
In words: two-hybrid library CCmax. The settings on record: mean of both orientations.

In a further assay the target is T33, P2-AA.
T33 chain: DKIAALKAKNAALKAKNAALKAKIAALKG
Kind of assay: two-hybrid library CCmax. The conditions noted are these: mean of both orientations.

A further assay addresses T34, P12A.
T34 chain: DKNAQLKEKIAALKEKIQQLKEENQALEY
In words: two-hybrid library CCNG1.

A further assay addresses T35, P1A.
T35 chain: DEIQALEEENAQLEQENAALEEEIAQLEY
Kind of assay: two-hybrid library CCNG1.

A further assay addresses T36, P2A.
T36 chain: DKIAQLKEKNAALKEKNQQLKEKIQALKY
In words: two-hybrid library CCNG1.

The target in another assay is T37, P3A.
T37 chain: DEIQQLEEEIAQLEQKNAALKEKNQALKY
In words: two-hybrid library CCNG1.

Another assay concerns the target T38, P4A.
T38 chain: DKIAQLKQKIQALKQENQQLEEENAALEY
In words: two-hybrid library CCNG1.

Another assay deals with T39, P5A.
T39 chain: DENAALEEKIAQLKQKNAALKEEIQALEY
In words: two-hybrid library CCNG1.

The next assay addresses T40, P6A.
T40 chain: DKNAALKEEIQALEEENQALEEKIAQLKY
Kind of assay: two-hybrid library CCNG1.

Another assay concerns the target T41, P7A.
T41 chain: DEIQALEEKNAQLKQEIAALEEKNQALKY
Kind of assay: two-hybrid library CCNG1.

The target in a further assay is T42, P8A.
T42 chain: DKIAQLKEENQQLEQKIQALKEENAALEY
In words: two-hybrid library CCNG1.

The next assay concerns the target T43, P9A.
T43 chain: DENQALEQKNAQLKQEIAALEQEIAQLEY
In words: two-hybrid library CCNG1.

The target in the next assay is T44, P11A.
T44 chain: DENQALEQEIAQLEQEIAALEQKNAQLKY
In words: two-hybrid library CCNG1.

Another assay deals with T45, P12bHq.
T45 chain: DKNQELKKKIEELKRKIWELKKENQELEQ
Kind of assay: two-hybrid library CCNG1.

In another assay the target is T46, P1bHq.
T46 chain: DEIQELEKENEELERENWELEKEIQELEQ
In words: two-hybrid library CCNG1.

Another assay addresses T47, P2bHq.
T47 chain: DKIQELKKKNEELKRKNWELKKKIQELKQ
Kind of assay: two-hybrid library CCNG1.

In the next assay the target is T48, P3bHq.
T48 chain: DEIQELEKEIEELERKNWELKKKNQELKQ
In words: two-hybrid library CCNG1.

The target in the next assay is T49, P4bHq.
T49 chain: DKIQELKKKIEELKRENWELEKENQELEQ
In words: two-hybrid library CCNG1.

The next assay addresses T50, P5bHq.
T50 chain: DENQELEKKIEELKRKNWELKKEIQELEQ
In words: two-hybrid library CCNG1.

In another assay the target is T51, P6bHq.
T51 chain: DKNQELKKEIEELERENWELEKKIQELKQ
In words: two-hybrid library CCNG1.

Another assay has as its target T52, P7bHq.
T52 chain: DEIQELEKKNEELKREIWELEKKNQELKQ
Kind of assay: two-hybrid library CCNG1.

The target of a further assay is T53, P8bHq.
T53 chain: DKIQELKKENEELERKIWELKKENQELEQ
Kind of assay: two-hybrid library CCNG1.

The next assay concerns the target T54, P9bHq.
T54 chain: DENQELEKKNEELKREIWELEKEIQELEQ
In words: two-hybrid library CCNG1.

Turning to DENQELEKENEELEREIWELEKKIQELKR [4H1158-bH], the interaction score with 4H1158-bH stood at 0.619; with 4H118-bH, 0.729; with 4H170-bH, 0.0131; in the assay with 4H1831-bH it was 0.197; with 4H2586-bH, 0.198; with 4H2627-bH it was 1.81. Further, the interaction score with 4H2673-bH was 0.836; with 4H2702-bH, 0.109; in the assay with 4H3010-bH, 1.95; with 4H3112-bH it was -0.598; with 4H3427-bH, 0.596; in the assay with 4H346-bH it was 0.268. Further, the interaction score turned out to be 1.63 with 4H3926-bH; 1.57 in the assay with 4H4073-bH; 0.951 with 4H457-bH; 0.888 with 4H575-bH; 1.13 in the assay with 4H683-bH; 0.159 with 4H754-bH. Also, the interaction score in the assay with 4H780-bH is 0.975; with 4H797-bH, 0.508; with 4H855-bH, -0.335; with 4H918-bH, -0.233; with 4H953-bH it was 0.0112; with 4H968-bH, 0.725.

Consider DEIAALEAETAALEAENAALEAEIAALEG [P1-AA-1HAA-T], for which the interaction score with P2-AA-1HAA-D worked out at 1.99; with P2-AA-1HAA-E, 2.02; in the assay with P2-AA-1HAA-H, 2.07; with P2-AA-1HAA-I, 2.05; with P2-AA-1HAA-R, 1.93; with P2-AA-1HAA-S, 2.1. Besides, the interaction score in the assay with P2-AA-1HAA-T is 1.69; in the assay with P2-AA-1HAA-V, 2.02; in the assay with P2-AA it was 1.88.

Turning to DEIAALEAELAALEAENAALEAEIAALEG [P1-AA-1HAA-L], the interaction score in the assay with P2-AA-1HAA-D amounted to 1.71; in the assay with P2-AA-1HAA-E, 1.89; with P2-AA-1HAA-H, 1.95; with P2-AA-1HAA-I it was 1.62; in the assay with P2-AA-1HAA-R it was 1.98; with P2-AA-1HAA-S, 1.77. Also, the interaction score with P2-AA-1HAA-T was found to be 1.93; with P2-AA-1HAA-V, 1.87; with P2-AA, 1.84.

Consider DKNAQLKEKIAALKEKIQQLKEENQALEY [P12A], for which the interaction score was -1.24 in the assay with P12A; -1.2 with P1A; -1.43 in the assay with P2A; 0.438 with P3A; -1.48 with P4A; -1.22 in the assay with P5A. Also, the interaction score with P6A was -1.16; with P7A, -1.15; with P8A, -1.25; with P9A, -0.254.

For the molecule DENQALEQEIAQLEQEIAALEQKNAQLKY [P11A], the interaction score was -0.318 in the assay with P11A; 2.09 with P12A; -0.233 with P1A; -0.397 with P2A; 0.195 with P3A; 1.99 with P4A. Moreover, the interaction score was 0.167 in the assay with P5A; -0.873 with P6A; -1.77 with P7A; -0.16 in the assay with P8A; 0.145 with P9A.

As to DKNQELKKKIEELKRKIWELKKENQELEQ [P12bHq], the interaction score with P12bHq was -0.763; with P1bHq it was -1.45; with P2bHq, -0.425; with P3bHq, -0.851; with P4bHq, 0.195; in the assay with P5bHq, -0.597. The interaction score with P6bHq was 0.286; in the assay with P7bHq it was 0.639; in the assay with P8bHq, -0.489; in the assay with P9bHq, 1.15.

Source of the values: article PMC10397247.
